Measurements published in patent publication US11124574B2, “Specific photoimmuno-theranostics for detection and elimination of skin cancer cells” (University of Cape Town, priority 2015, dated 2021).

Experiments:
[1] = system: A431, IGR-1, IGR-39 and A2058; test: Apo-ONE Caspase-3/7 apoptosis assay, controls; assay type: cell-based, human; conditions: photosensitizer or fusion protein alone
Protocol: (§1) In addition to the in vitro imaging specificity, the phototoxic activity of scFv-SNAP-IR700 and free IR700 were also investigated using cell proliferation and cell apoptosis assays as described previously (9). Briefly, 2×10^4 cells were seeded in 96-well plates and incubated overnight at 37° C. The cells were treated with different concentrations (0, 12.5, 25, 50, 100, 200 and 400) nM of scFv-425-SNAP, IR700 or equivalent concentration of scFv-SNAP-425-IR700 for 3 h at 37° C. in the dark. Toxic control cultures were incubated with 500 μg/mL zeocin instead of the photosensitizer.
(§2) Before light irradiation, cells were washed three times with PBS and fresh phenol red free culture media were added to the cells. […]
(§3) Next it was determined whether scFv-SNAP-IR700 has the ability to induce apoptosis using the Apo-ONE® Homogeneous Caspase-3/7 assay (Promega, Mannheim, Germany). […] The activities of caspase-3 and -7 enzymes were analyzed in cell lysates by measuring the fluorescence signal at 485 nm excitation wavelength and 535 nm emission wavelength using the ELISA plate reader ELx808 (Bio-TEK, Bad Friedrichschall, Germany).

[2] = system: A431, IGR-1, IGR-39 and A2058; test: XTT cell viability assay, controls on all cell lines; assay type: cell-based, human; conditions: for cell viability (XTT), controls: all cell lines, treated with NIR-light
Protocol: (§4) The human skin epidermoid carcinoma cell line A431 (ATCC: CRL-259), human embryonic kidney (HEK-293T) cell line (ATCC: CRL-11268) and the human melanoma cell line A2058 (ATCC: CRL-11147) were cultured in RPMI-1640 medium. The human melanoma cell line IGR-39 (DSMZ: ACC 239) and IGR-1 (DSMZ: ACC-236) were cultured in DEME medium. All media were supplemented with 2 mM L-glutamine, 10% (v/v) fetal bovine serum (FBS) and 100 U/mL penicillin-streptomycin; the cells were incubated at 37° C. in a 5% CO2 atm. All media and additives were purchased from Life Technologies, Darmstadt, Germany.
as §1
Before light irradiation, cells were washed three times with PBS and fresh phenol red free culture media were added to the cells. Light treatment was performed with a Hydrosun® Typ 750 radiator with a water-containing cuvette and an orange filter OG590, with 140 mW/cm^2, dose: 25 J/cm^2a VIS, 76 J/cm^2 wIRA, exposure time: 15 min, and a spectrum in the range of 580-1400 nm (Hydrosun Medizintechnik GmbH, Mülhelm, Germany). […]
(§5) Cell viability was measured using the cell proliferation kit II (XTT®) (Roche, Mannheim Germany) according to the manufacturer's instructions. […] Cell viability was determined colorimetrically by monitoring the reduction of XTT® to formazan at 450 nm absorbance wavelength and 630 nm reference wavelength using the ELx808 absorbance micro-plate reader (BioTek Instruments GmbH, Bad Friedrichshall, Germany).

[3] = system: EGFR-expressing cell lines (A431, IGR1 and IGR-39); test: Confocal microscopy binding and internalization; assay type: cell-based, human
Protocol: (§6) To further monitor the targeted activity of fusion protein, Opera® High Content Screening System (PerkinElmer, Rodgau, Germany) was used to determine the binding and internalization properties of labeled fusion proteins on skin cancer cells. Cells were prepared as described for flow cytometry analysis. Binding activity was analyzed by incubating the cells with labeled fusion proteins for 30 min on ice, while receptor mediate internalization activities was monitored by incubating the cells with the labeled fusion proteins for 2 h at 37° C.

[4] = system: EGFR low expressing cell line (A2058); test: Confocal microscopy binding and internalization; assay type: cell-based, human; conditions: same conditions
Protocol: as §6

[5] = system: EGFR^+ skin carcinoma cell lines (A431, IGR1 and IGR-39); test: Flow cytometry binding analysis; design: species or system human; conditions: EGFR+ skin cancer cells; 30 min on ice
Protocol: Flow cytometry analysis was performed to determine the binding properties of labeled scFv-SNAP-tag fusion protein against skin cancer cell lines. Approximately 4×10^5 cells each of the EGFR-positive skin cancer cell lines IGR-39, IGR-1 and A431 as well as of the EGFR low expressing cell line A2058 were incubated with 0.5 μg of labeled proteins for 30 min on ice. After washing the cells twice with 1.8 mL of PBS in a conventional cell washer, fluorescence signals were detected using a FACSCalibur® device and CellQuest® software (Becton & Dickinson, Heidelberg, Germany) using a 633 nm laser source.

[6] = system: A2058 cells (EGFR low expressing); test: XTT cell viability assay after light treatment; assay type: cell-based, human; conditions: same protocol with light, up to 400 nM
Protocol: as §4
(§7) In addition to the in vitro imaging specificity, the phototoxic activity of scFv-SNAP-IR700 and free IR700 were also investigated using cell proliferation and cell apoptosis assays as described previously (9). Briefly, 2×10^4 cells were seeded in 96-well plates and incubated overnight at 37° C. […]
as §5

[7] = system: EGFR-expressing skin cancer cell lines (A431, IGR-1, IGR-39); test: XTT cell viability assay, EGFR-expressing lines together; assay type: cell-based, human; conditions: with light 580-1400 nm; 0-400 nM
Protocol: as §4, §7, §5

[8] = system: cells expressing EGFR (A431, IGR-1, IGR-39); test: Apo-ONE Caspase-3/7 apoptosis assay; assay type: cell-based, human; conditions: all cells expressing EGFR; with light
Protocol: as §1, §2, §3

[9] = system: EGFR low expressing cells (A2058); test: Apo-ONE Caspase-3/7 apoptosis assay; assay type: cell-based, human; conditions: same conditions
Protocol: as §1, §2, §3

C[Si](C)(CCC[N+](CCCS(=O)(=O)[O-])(CCCS(=O)(=O)[O-])CCCS(=O)(=O)[O-])O[Si]1(O[Si](C)(C)CCC[N+](CCCS(=O)(=O)[O-])(CCCS(=O)(=O)[O-])CCCS(=O)(=O)[O-])n2c3c4ccccc4c2N=C2N=C(N=c4c5ccccc5c(n41)=NC1=NC(=N3)c3ccccc31)c1cccc(OCCCOC(=O)NCCCCCC(=O)ON3C(=O)CCC3=O)c12.[Na+].[Na+].[Na+].[Na+] (stereo not shown) [IR700, IRDye®700DX N-hydroxysuccinimide ester, reference compound]
caspase activities, controls [1]: no significant elevation of caspase activities
cell viability (XTT), controls [2]: unaffected

scFv-425-SNAP-tag: unlabeled fusion protein of anti-EGFR scFv-425 (SEQ ID No. 1) and SNAP-tag (SEQ ID No. 2)
caspase activities, controls [1]: no significant elevation of caspase activities
cell viability (XTT), controls [2]: unaffected

B1: scFv-425-SNAP-647: scFv-425-SNAP-tag fusion protein conjugated with BG-Alexa-647 dye, used for flow cytometry and confocal microscopy (conjugate)
scFv: MAQVQLQQSGAELVKPGASVKLSCKASGYTFTSHWMHWVKQRAGQGLEWIGEFNPSNGRTNYNEKFKSKATLTVDKSSSTAYMQLSSLTSEDSAVYYCASRDYDYDGRYFDYWGQGTTVTVSSGGGGSGGGGSGGGGSDIELTQSPAIMSASPGEKVTMTCSASSSVTYMYWYQQKPGSSPRLLIYDTSNLASGVPVRFSGSGSGTSYSLTISRMEAEDAATYYCQQWSSHIFTFGSGTELEIKRMDKDCEMKRTTLDSPLGKLELSGCEQGLHEIKLLGKGTSAADAVEVPAPAAVLGGPEPLMQATAWLNAYFHQPEAIEEFPVPALHHPVFQQESFTRQVLWKLLKVVKFGEVISYQQLAALAGNPAATAAVKTALSGNPVPILIPCHRVVSSSGAVGGYEGGLAVKEWLLAHEGHRLGKP
modifications: left off: small tags and cut ends
binding, cell membrane staining (confocal) ([3]; 30 min incubation at 4° C.): homogeneous cell membrane staining
internalization (confocal) ([3]; max. 2 h of incubation at 37° C.): exclusively taken up
binding/internalization signal (confocal) [4]: no signal was detected
labeling of cells (flow cytometry) [5]: rapid and efficient labeling

B2: scFv-425-SNAP-IR700: IR700 photosensitizer (via BG-PEG24 linker) conjugated to anti-EGFR single-chain variable fragment scFv-425 fused to SNAP-tag (conjugate)
scFv: MAQVQLQQSGAELVKPGASVKLSCKASGYTFTSHWMHWVKQRAGQGLEWIGEFNPSNGRTNYNEKFKSKATLTVDKSSSTAYMQLSSLTSEDSAVYYCASRDYDYDGRYFDYWGQGTTVTVSSGGGGSGGGGSGGGGSDIELTQSPAIMSASPGEKVTMTCSASSSVTYMYWYQQKPGSSPRLLIYDTSNLASGVPVRFSGSGSGTSYSLTISRMEAEDAATYYCQQWSSHIFTFGSGTELEIKRMDKDCEMKRTTLDSPLGKLELSGCEQGLHEIKLLGKGTSAADAVEVPAPAAVLGGPEPLMQATAWLNAYFHQPEAIEEFPVPALHHPVFQQESFTRQVLWKLLKVVKFGEVISYQQLAALAGNPAATAAVKTALSGNPVPILIPCHRVVSSSGAVGGYEGGLAVKEWLLAHEGHRLGKP
modifications: left off: small tags and cut ends
notes: IR700 photosensitizer (via BG-PEG24 linker) conjugated to anti-EGFR single-chain variable fragment scFv-425 fused to SNAP-tag
cell viability (XTT) [6]: no significant reduction in cell viability
viability of EGFR+ cells (XTT) [7]: reduced significantly in a concentration-dependent manner
cell viability (XTT) without light ([2]; without any light treatment): no toxic effects
caspase-3 and caspase-7 activities (apoptosis) [8]: triggers apoptosis
caspase-3 and caspase-7 activities (apoptosis) [9]: did not have a negative impact
